Experimental data taken from article PMC3080137, “The Anti-Apoptotic Bcl-xL Protein, a New Piece in the Puzzle of Cytochrome C Interactome” (PLoS ONE, 2011).

Molecular target: human Bcl-xL (residues 1-209, lacking the C-terminal hydrophobic tail) (human, UniProt Q07817-1 1-209, 15N-labelled where it was the observed protein)
Test: NMR titration; 15N-Bcl-xL titrated with unlabeled cytochrome c up to Bcl-xL:cytochrome c 1:10, 1H-15N HSQC; Kd from weighted average chemical shift variations; 300 K; 50 mM sodium phosphate pH 7.3, 150 mM NaCl, 1 mM DTT, 10% D2O
Conditions: both partners purified

Sequence of human Bcl-xL (residues 1-209, lacking the C-terminal hydrophobic tail) (Q07817 1-209): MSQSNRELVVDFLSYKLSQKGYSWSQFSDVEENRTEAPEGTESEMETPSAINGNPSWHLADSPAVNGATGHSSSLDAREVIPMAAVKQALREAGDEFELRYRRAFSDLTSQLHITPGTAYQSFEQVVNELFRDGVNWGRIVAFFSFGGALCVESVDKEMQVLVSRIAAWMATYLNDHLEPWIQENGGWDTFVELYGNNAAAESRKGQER

B1: human cytochrome c (natural protein)
chain: not shown
modifications: heme, iron(II) (reduced) form; 15N-labelled where it was the observed protein
notes: cytochrome c, human, full length; also called reduced cytochrome c; source: expressed and purified as reported in the literature [36]; unlabeled and 15N-labeled form
Kd: 1000 to 3000 µM
